B1: OcwA (Outer cell wall protein A), TherJR_2595 (Thermincola carboxydiphila JR) (protein)
chain: EKPADSGPAVAQNTEYVGDEACKTCHSDVHSAWSETSHGNFIKDVTKDPKALPGNFEGNYPKMLNFKAEDIQYVLLGKPGALKVQELVGKKGTFGVPADDYPVMWASWDAGKGEWEIEVEAIGEGTPWLSTCAGCHVTGLTVPTDKNPKAAKAFAGFGITCEQCHGPGAKHIKNPQGEKMVISYDAENCGQCHSRGDSVAKTPDGKPFGYPYNDEGQYVPGKKLADYYTVVSVEGDKEGKLFWPTKHAKNSHHLQYPEWLMTGHATALETLKGNGHAQDRCLKCHSAEAYLAKEGTTVTMNDAKLGVTCQVCHASHDPAATKEAFLRKPKTEICTQCHNAEGGIVAGKEVHHPHKEMNEGKIGLGFPDSPSVMYKAGVTCVDCHMPKTAGPKASHLMKVVMPKDGKANGMPDSCSSCHPGASQDYLQNVIDTWQNDIKGRLAKVKAKLDAKKAAANSQAYKEALTYYSIVAADGSNGVHNYDLAVKLLTAAEQKLQ
notes: native signal peptide replaced by that of S. oneidensis MR-1 stc, cleaved (N-terminus EKPAD); E. coli JM109(DE3), HisTrap purified; ~62 kDa; nine c-type hemes; monomer/dimer mixture; precursor 525 residues

How the values were obtained:
[1] = molecular target: T1, OcwA (Outer cell wall protein A), TherJR_2595 (Thermincola carboxydiphila, UniProt D5XBK3); test: […] NMR titration; assay type: binding; conditions: 100 μM FMN, 20 mM phosphate pH 7.6, 100 mM KCl, 25°C; slow exchange
T1 construct: native signal peptide replaced by that of S. oneidensis MR-1 stc, cleaved (N-terminus EKPAD); E. coli JM109(DE3), HisTrap purified; ~62 kDa; nine c-type hemes; monomer/dimer mixture; precursor 525 residues

[2] = substrate: O=NO; test: purified protein; assay type: biochemical, Thermincola carboxydiphila; conditions: up to 1 mM reduced methyl viologen, 50 mM potassium phosphate pH 7.0, 55°C, anaerobic

Row | Molecule | 31P NMR titration [1] | Km [2] | kcat [2]
1 | Cc1cc2nc3c(=O)[nH]c(=O)nc-3n(C[C@H](O)[C@H](O)[C@H](O)COP(=O)(O)O)c2cc1C [FMN, flavin mononucleotide] | These spectral changes arise from binding of FMN to OcwA in a slow exchange regime |  | 
2 | B1 |  | 65 µM | 1 min⁻¹
